# Results taken from the Human Domainome abundance scans (Beltran et al. 2025).
# ± gives the uncertainty stated by the source.
# B1: MEF2-activating motif and SAP domain-containing transcriptional regulator, residues 170 to 204; numbered along this chain, Q6ZN01 (parent)
# chain: LKLEELTVSELRQQLRLRGLPVSGTKSMLLERMRG
# Variants of: B1
# Test: abundance fitness (aPCA) (normalised: wild type 0, dead -1); higher = more abundant; growth selection in yeast, the domain comes from the species named
# Settings: Homo sapiens
row,Variant,abundance fitness
1,LKLEELTVSELRFQLRLRGLPVSGTKSMLLERMRG,-0.101 ± 0.21
2,LKLEELTVSELRQQLRLRGLPVSGTKSMLLERFRG,-0.516 ± 0.091
3,LKLEELTVSELRQQLRLRGLPVGGTKSMLLERMRG,-0.007 ± 0.071
4,LKLEELGVSELRQQLRLRGLPVSGTKSMLLERMRG,-0.199 ± 0.054
5,LKLEELTVSELRQQLRLRGLPVSKTKSMLLERMRG,-1.25 ± 0.2
6,LKLEELTVSELRQALRLRGLPVSGTKSMLLERMRG,0.135 ± 0.084
7,LKLEELTVSELRQMLRLRGLPVSGTKSMLLERMRG,0.023 ± 0.063
8,LKLEELTVSELRQQLRLRGLSVSGTKSMLLERMRG,-0.129 ± 0.061
9,LKLEELTVSELYQQLRLRGLPVSGTKSMLLERMRG,-0.495 ± 0.21
10,LKLEELTVSELRQQLRLRGLPVSGTKSMLSERMRG,-0.601 ± 0.081
11,LKLEELTVSELRQQLSLRGLPVSGTKSMLLERMRG,-0.095 ± 0.066
12,LKLEELTVSELRQQLRLRGLTVSGTKSMLLERMRG,-0.235 ± 0.096
13,LKLEELTVSELRQQLRLRGKPVSGTKSMLLERMRG,-0.555 ± 0.11
14,LKLEELTVSELNQQLRLRGLPVSGTKSMLLERMRG,-0.961 ± 0.49
15,LKLEELTVSELRQQLRLRGLPVSGTKVMLLERMRG,-0.349 ± 0.084
16,LKLEELTVRELRQQLRLRGLPVSGTKSMLLERMRG,-0.09 ± 0.05
17,LKLEELTVSELRQQLRLRGLPVSGTKSMLDERMRG,-0.376 ± 0.13
18,VKLEELTVSELRQQLRLRGLPVSGTKSMLLERMRG,-0.134 ± 0.11
19,LKLEELTVSQLRQQLRLRGLPVSGTKSMLLERMRG,-0.216 ± 0.14
20,LKLEELTVSELRQTLRLRGLPVSGTKSMLLERMRG,-0.45 ± 0.16
21,LKLEELAVSELRQQLRLRGLPVSGTKSMLLERMRG,-0.519 ± 0.18
22,LKLNELTVSELRQQLRLRGLPVSGTKSMLLERMRG,-0.017 ± 0.21
23,LKLEELTVSELRQQLRLRGEPVSGTKSMLLERMRG,-0.192 ± 0.055
24,LKLEELTVSEERQQLRLRGLPVSGTKSMLLERMRG,-0.864 ± 0.13

row,Variant,abundance fitness
1,LKLEGLTVSELRQQLRLRGLPVSGTKSMLLERMRG,-0.359 ± 0.1
2,LKLEELTVSELRQQLRLRGLPVSGTKSMLWERMRG,-0.456 ± 0.17
3,LKLEELTVSELRQQKRLRGLPVSGTKSMLLERMRG,-0.361 ± 0.099
4,LKLEELTVSELRQQLRLRGLPVSGRKSMLLERMRG,-0.497 ± 0.054
5,LKLEELTVSELRQQLRLRGLFVSGTKSMLLERMRG,-1.08 ± 0.26
6,LKLEELTVSELRQQLRLRGLPASGTKSMLLERMRG,0.052 ± 0.1
7,LKLEELTVSELRQQLRRRGLPVSGTKSMLLERMRG,-0.155 ± 0.056
8,LKLEELTVSELRQQLRLRGLPVSGTLSMLLERMRG,-0.159 ± 0.1
9,LKLEELTVSELRQQLRLRGLPVMGTKSMLLERMRG,-0.222 ± 0.065
10,LKLEELTVSELRQQLRLRGLPVSGTKSMLLERMFG,-0.516 ± 0.099
11,LKLEELTGSELRQQLRLRGLPVSGTKSMLLERMRG,-0.429 ± 0.06
12,LKLEELTVSELRQQLRLRGLPVSGTKSMLLEIMRG,-0.507 ± 0.12
13,LKLEELTVSWLRQQLRLRGLPVSGTKSMLLERMRG,-0.728 ± 0.11
14,LKLEELTVSELPQQLRLRGLPVSGTKSMLLERMRG,-0.602 ± 0.096
15,LKLEELTVSELRQQLRLRGLPVPGTKSMLLERMRG,-0.838 ± 0.096
16,LKLEELTYSELRQQLRLRGLPVSGTKSMLLERMRG,-0.576 ± 0.15
17,LKLEELTVSELRQQLRLRGLPVSGTKSMLLERMYG,-0.316 ± 0.08
18,LKLEELTVSELRQQLDLRGLPVSGTKSMLLERMRG,-0.331 ± 0.09
19,LKLEELTVSELRQQLRLRGLPVSGTKSMLLERWRG,-0.538 ± 0.11
20,LKLEELTVSELRQQLRLRGSPVSGTKSMLLERMRG,-0.731 ± 0.35
21,LKLEELTVSELRQQLQLRGLPVSGTKSMLLERMRG,-0.207 ± 0.18
22,LKLEYLTVSELRQQLRLRGLPVSGTKSMLLERMRG,-0.424 ± 0.11
23,LKLEELTVSELRQQLRLRGLPVSGTKSMLIERMRG,0.394 ± 0.25
24,LKLEELTVSELRQQLPLRGLPVSGTKSMLLERMRG,-0.96 ± 0.13

row,Variant,abundance fitness
1,LKLEELTVSKLRQQLRLRGLPVSGTKSMLLERMRG,-0.354 ± 0.14
2,YKLEELTVSELRQQLRLRGLPVSGTKSMLLERMRG,0.02 ± 0.24
3,LKLMELTVSELRQQLRLRGLPVSGTKSMLLERMRG,-0.41 ± 0.071
4,LKLEELTVSELRQQLRLRGLPVSGHKSMLLERMRG,-0.295 ± 0.18
5,LKLEELTVSELRQQLRLRGLPWSGTKSMLLERMRG,-0.595 ± 0.12
6,LKLEELTVSELRQQLRLRGLPVSGTKSMLLETMRG,0 ± 0.1
7,LKLEELTVSELRQQLRLRGLPVDGTKSMLLERMRG,0.233 ± 0.14
8,LKLEELTVSELRQQLRLRGLPVSGTKSILLERMRG,-0.015 ± 0.098
9,LKLEELTVSELRQQLRLKGLPVSGTKSMLLERMRG,-0.119 ± 0.068
10,LKLEELTVSELRQQCRLRGLPVSGTKSMLLERMRG,0.149 ± 0.065
11,LKLEELTVSELRQQLRLMGLPVSGTKSMLLERMRG,0.126 ± 0.071
12,LKLEELTVSELSQQLRLRGLPVSGTKSMLLERMRG,-0.29 ± 0.087
13,LKLEELTVSELRQQLRLRGLPVSGTKEMLLERMRG,0.081 ± 0.05
14,FKLEELTVSELRQQLRLRGLPVSGTKSMLLERMRG,-0.19 ± 0.13
15,LKLEELTVSELRQQLRLRGLPVSGTKSMLLNRMRG,-0.238 ± 0.11
16,LKLEELTVSELRGQLRLRGLPVSGTKSMLLERMRG,-0.251 ± 0.061
17,LKLEELTVSELRQQLRLRGLPVSGTKSHLLERMRG,-0.003 ± 0.14
18,LKLEELTVSELRQGLRLRGLPVSGTKSMLLERMRG,-0.35 ± 0.063
19,LKLEELMVSELRQQLRLRGLPVSGTKSMLLERMRG,-0.598 ± 0.16
20,LKLEELTVSELRQQLRLRSLPVSGTKSMLLERMRG,-0.34 ± 0.065
21,LKLEELTVSELRQQLRLRWLPVSGTKSMLLERMRG,-0.863 ± 0.092
22,LKLEVLTVSELRQQLRLRGLPVSGTKSMLLERMRG,-0.329 ± 0.088
